{"source": "paper PMC9898865", "molecular_target": "SARS-CoV-2 S protein (residues 1-1212 with stabilizing mutations R684G, R685S, R678G, K998P and V999 (SARS-CoV-2) (UniProt P0DTC2))", "assay": "ELISA; ELISA-like solid-phase binding: ligands coated on 96-well plates in TBS, 6 h RT (S protein 20 µg/ml, vitronectin 5 µg/ml, fibrinogen 20 µg/ml, fibronectin 10 µg/ml); velcro-tagged integrins at 10 µg/ml in 20 mM Hepes, 150 mM NaCl, 1 mM MnCl2, pH 7.2, 2 h RT; detected by biotinylated anti-velcro antibody, streptavidin-HRP, ABTS, 405 nm", "data": [{"substance": "velcro-tagged integrin α5β1 (from UniProt P08648 42-995; P05556 21-728) (receptor)", "values": [{"measurement": "fold weaker than the binding to the physiological ligand (fibronectin)", "result": "< 10", "unit": "fold"}]}]}
